Assay results as given in patent US20260216242A1 (ALMAC DISCOVERY, published 2026).

T1: ALPI His homodimer (human, UniProt P09923 20-503)
T1 construct: Whole entry with His tag; used in ELISA and BLI; also called hALPI
T1 sequence: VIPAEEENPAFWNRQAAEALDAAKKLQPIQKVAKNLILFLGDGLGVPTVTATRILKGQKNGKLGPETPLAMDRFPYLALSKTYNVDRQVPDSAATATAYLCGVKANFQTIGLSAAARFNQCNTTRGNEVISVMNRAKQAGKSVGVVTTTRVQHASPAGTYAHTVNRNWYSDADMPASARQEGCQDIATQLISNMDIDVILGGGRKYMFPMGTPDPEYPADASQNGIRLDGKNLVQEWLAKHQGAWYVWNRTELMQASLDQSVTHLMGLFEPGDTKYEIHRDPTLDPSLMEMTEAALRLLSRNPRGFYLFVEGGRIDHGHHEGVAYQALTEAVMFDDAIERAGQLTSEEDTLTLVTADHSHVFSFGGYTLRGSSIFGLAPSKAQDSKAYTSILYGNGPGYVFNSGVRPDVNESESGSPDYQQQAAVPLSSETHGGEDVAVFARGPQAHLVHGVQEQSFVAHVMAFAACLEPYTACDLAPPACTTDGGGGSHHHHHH

T2: Human ALPL (leucine zipper) (human)
T2 construct: Whole entry: fused with a cysteine stabilised leucine zipper and His tag; also called hALPL
T2 chain: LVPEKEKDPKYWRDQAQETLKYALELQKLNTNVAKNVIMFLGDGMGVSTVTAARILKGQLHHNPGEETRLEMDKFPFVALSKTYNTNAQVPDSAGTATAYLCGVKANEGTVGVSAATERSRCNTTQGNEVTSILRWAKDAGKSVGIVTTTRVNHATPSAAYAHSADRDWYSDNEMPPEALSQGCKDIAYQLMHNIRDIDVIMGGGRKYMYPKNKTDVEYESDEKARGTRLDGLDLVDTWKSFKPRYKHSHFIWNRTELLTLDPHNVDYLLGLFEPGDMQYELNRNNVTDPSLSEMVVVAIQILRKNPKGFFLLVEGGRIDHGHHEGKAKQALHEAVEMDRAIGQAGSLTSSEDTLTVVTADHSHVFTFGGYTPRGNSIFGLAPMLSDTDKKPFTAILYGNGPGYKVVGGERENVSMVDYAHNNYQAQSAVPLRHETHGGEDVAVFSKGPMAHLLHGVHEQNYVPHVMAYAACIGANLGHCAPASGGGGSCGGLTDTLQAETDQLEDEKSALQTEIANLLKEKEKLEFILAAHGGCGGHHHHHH

T3: Human ALPP (leucine zipper) (human)
T3 construct: Whole entry: ALPP fused with a cysteine stabilised leucine zipper and His tag; also called hALPP
T3 chain: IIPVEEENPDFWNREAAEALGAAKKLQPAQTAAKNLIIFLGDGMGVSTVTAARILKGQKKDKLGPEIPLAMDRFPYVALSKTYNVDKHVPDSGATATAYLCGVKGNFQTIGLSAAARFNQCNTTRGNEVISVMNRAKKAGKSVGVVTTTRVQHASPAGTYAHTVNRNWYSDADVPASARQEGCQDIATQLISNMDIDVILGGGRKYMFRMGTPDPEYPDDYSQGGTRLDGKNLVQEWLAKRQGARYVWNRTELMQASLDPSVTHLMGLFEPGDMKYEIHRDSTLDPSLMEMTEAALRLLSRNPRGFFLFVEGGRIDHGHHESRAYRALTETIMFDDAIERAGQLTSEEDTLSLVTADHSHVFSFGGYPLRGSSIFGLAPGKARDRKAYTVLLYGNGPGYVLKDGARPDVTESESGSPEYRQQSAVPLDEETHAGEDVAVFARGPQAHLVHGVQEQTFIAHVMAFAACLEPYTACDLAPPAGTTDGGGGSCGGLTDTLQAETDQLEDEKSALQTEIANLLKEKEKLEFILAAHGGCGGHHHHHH

T4: human ALPI on CHO cells (human, UniProt P09923 20-503)
T4 construct: whole, on cells; also called CHO-ALPI
T4 sequence (looked up): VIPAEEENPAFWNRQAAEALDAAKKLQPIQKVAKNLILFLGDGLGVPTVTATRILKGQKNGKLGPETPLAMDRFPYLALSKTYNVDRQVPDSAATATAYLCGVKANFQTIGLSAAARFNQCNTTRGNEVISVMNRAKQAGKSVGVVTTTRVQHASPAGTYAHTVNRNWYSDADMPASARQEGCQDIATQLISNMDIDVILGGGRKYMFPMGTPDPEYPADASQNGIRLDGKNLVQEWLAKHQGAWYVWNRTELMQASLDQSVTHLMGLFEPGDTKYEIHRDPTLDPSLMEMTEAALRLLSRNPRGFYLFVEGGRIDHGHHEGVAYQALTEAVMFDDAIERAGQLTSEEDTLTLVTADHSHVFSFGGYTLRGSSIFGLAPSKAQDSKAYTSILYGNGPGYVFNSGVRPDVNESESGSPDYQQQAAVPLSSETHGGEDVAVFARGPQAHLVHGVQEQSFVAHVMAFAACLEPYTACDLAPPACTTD

T5: human ALPL on CHO cells (human, UniProt P05186 18-501)
T5 construct: whole, on cells; also called CHO-ALPL
T5 sequence (looked up): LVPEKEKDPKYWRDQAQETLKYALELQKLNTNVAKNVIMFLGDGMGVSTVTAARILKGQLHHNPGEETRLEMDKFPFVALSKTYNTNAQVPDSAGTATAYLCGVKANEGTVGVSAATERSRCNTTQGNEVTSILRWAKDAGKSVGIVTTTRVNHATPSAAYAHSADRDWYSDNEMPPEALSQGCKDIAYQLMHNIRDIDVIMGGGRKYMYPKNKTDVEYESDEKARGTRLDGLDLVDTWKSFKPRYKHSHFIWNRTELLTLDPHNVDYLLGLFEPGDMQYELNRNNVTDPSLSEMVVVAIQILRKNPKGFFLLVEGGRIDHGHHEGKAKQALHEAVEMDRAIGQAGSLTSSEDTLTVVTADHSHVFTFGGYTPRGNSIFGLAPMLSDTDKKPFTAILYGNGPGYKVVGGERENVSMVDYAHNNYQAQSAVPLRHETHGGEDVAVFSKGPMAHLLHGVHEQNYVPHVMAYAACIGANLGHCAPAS


Legend:
ALPI His homodimer = molecular target: T1, ALPI His homodimer; experiment: ELISA, antigen coated
Description: (§1) ELISA was used to test the binding and specificity of the VHHs. […] Anti-Llama—HRP antibody was used for detection.

ALPP CysHis = molecular target: T6, ALPP CysHis (human, UniProt P05187 23-502); experiment: ELISA, antigen coated
T6 construct: Whole entry: engineered human ALPP with an introduced cysteine and a His tag; homodimer; also called engineered ALPP homodimer; hALPP (ELISA)
Description: as §1

[1] = molecular target: T2, Human ALPL (leucine zipper); experiment: BLI, antigen immobilised
Experimental: (§2) Binding kinetics were determined using the Biolayer Interferometry (BLI) Octet K2 system (Sartorius). […] All assays were conducted in PBS with a plate temperature of 25° C. Ka (M⁻¹s⁻¹), Kd (s⁻¹) and KD (nM) values were determined using Octet Data Analysis High Throughput software (ForteBio) for Biolayer Interferometry.

[2] = molecular target: T3, Human ALPP (leucine zipper); experiment: BLI, antigen immobilised
Experimental: as §2

human ALPI on CHO cells = molecular target: T4, human ALPI on CHO cells; experiment: flow cytometry, CHO cells stably expressing human ALPI; PDC detected with FITC anti-human Ab
Experimental: (§3) Biparatopic VHH-hFc drug conjugates were assessed for human ALPP, ALPPL2, ALPI and ALPL cell-surface binding by flow cytometry. Binders were screened on CHO cells stably expressing human ALPP, ALPPL2, ALPI or ALPL.
(§4) Cell surface binding of test agents to hALPP isoforms was characterized in four CHO-ALPP isoform transfectant cell lines (CHO-ALPP, CHO-ALPPL2, CHO-ALPI and CHO-ALPL) and the resulting KDapp values determined. Adherent cells were detached from tissue culture flasks by incubating with 0.1% EDTA/PBS solution at 37° C. for […] or until cells detached easily. Cells were re-suspended in ice-cold PBS/2% FCS in 15 ml tubes and centrifuged at 1700 rpm for 5 mins at 4° C. Supernatant was removed and the cell pellet re-suspended in PBS/2% FCS. […] Cells were incubated with 100 μl of test agents at a range of concentrations, plus controls for 1 hr on ice. The sample plate was centrifuged at 1700 rpm for 5 mins at 4° C. The supernatant was removed, and a wash performed by re-suspending the cell pellets in 0.25 mL of ice-cold PBS/2% FCS using a multichannel pipette. Samples were again centrifuged at 1700 rpm for 5 min at 4° C. Supernatant was removed and two further washes performed as described. After the final wash and centrifugation step, excess liquid was removed by blotting the plate on tissue paper. Binding of VHH-hFc agents was determined by adding 100 μl of Fitc-anti-human Ab (ThermoFisher) and incubating for 30 mins on ice in the dark. Wash steps were performed as described previously. All cell pellets were finally re-suspended in 0.28 ml of ice-cold PBS/2% FCS and left on ice in the dark prior to analysis on a Merck-Millipore Guava EasyCyte HT or Thermo Fisher Attune N×T flow cytometer.

human ALPL on CHO cells = molecular target: T5, human ALPL on CHO cells; experiment: flow cytometry, CHO cells stably expressing human ALPL; PDC detected with FITC anti-human Ab
Experimental: as §3, §4

Row | Binder | binding result (ALPI His homodimer) | binding result (ALPP CysHis) | binding result [1] | Kd [2] | koff [2] | kon [2] | binding result (human ALPI on CHO cells) | binding result (human ALPL on CHO cells)
1 | B09 (VHH, not shown: small tags and cut ends) VHH: QVQLVESGGGSVQAGGSLRLSCAASGPSLSHYAMGWFRQAPGKEREFVAGISWGGGRTSYTDSVKGRFTISRDNAKNTVYLQMNNLKPEDTGVYYCAGRYGRGRNVEYEYDYWGQGTQVTVSS | no binding (tested: 500 ng VHH) | binds | no binding | < 0.01 nM | < 1e-07 s⁻¹ | 237000 M⁻¹ s⁻¹ | – | –
2 | H09 (VHH, not shown: small tags and cut ends) VHH: QVQLVESGGGSVQTGGSLRLSCAASGPSLSNYAMGWFRQAPGKEREFVAGISWGGGRTNYLDSVKGRFTISRDNAKNTMYLQMNSLKPEDTAVYYCAGRYGRGRDVEYEYDYWGQGTQVTVSS | no binding (tested: 500 ng VHH) | binds | no binding | < 0.01 nM | < 1e-07 s⁻¹ | 58600 M⁻¹ s⁻¹ | – | –
3 | D10-E06 hFc-vcPAB-MMAE [G4S]3 (Fc fusion, DAR 4, MC-vc-PAB-MMAE on Cys 239 and Cys 442 (EU numbering), Biparatopic drug conjugate, DAR 4; also called #634) chain 1: QVQLVESGGGLVQPGGSLRLSCAASGSIFSVNTMGWYRQAPGKQRDLVAVATSGGTIHYADSVKGRFTISRDNAKNTVYLQMNSLKPEDTAVYYCNLVVPYGMIAGDHDYWGQGTKVTVSSGGGGSGGGGSGGGGSEPKSSDKTHTCPPCPAPELLGGPCVFLFPPKPKDTLMISRTPEVTCVVVDVSHEDPEVKFNWYVDGVEVHNAKTKPREEQYNSTYRVVSVLTVLHQDWLNGKEYKCKVSNKALPAPIEKTISKAKGQPREPQVYTLPPSRDELTKNQVSLYCLVKGFYPSDIAVEWESNGQPENNYKTTPPVLDSDGSFFLYSKLTVDKSRWQQGNVFSCSVMHEALHNHYTQKSLCLSPGK chain 2: QVHLVESGGGLVQAGGSLRLSCAASRRSFSEYAMGWFRQAPGKEREFVAAIGWSGVIEYADSVKGRFTISRDNAKDTVYLQMNSLKPEDTAVYYCAAGLGIRVVSQTPAYWGQGTQVTVSSGGGGSGGGGSGGGGSEPKSSDKTHTCPPCPAPELLGGPCVFLFPPKPKDTLMISRTPEVTCVVVDVSHEDPEVKFNWYVDGVEVHNAKTKPREEQYNSTYRVVSVLTVLHQDWLNGKEYKCKVSNKALPAPIEKTISKAKGQPREPQVYTLPPSRDELTKNQVSLTCLVKGFYPSDIAVEWESNGQPENNYKTTPPVLDSDGSFFLTSKLTVDKSRWQQGNVFSCSVMHEALHNHYTQKSLCLSPGK | – | – | – | – | – | – | no binding (tested: 350 nM) | no binding (tested: 350 nM)

Next, values leading:

Row | binding result (ALPI His homodimer) | binding result (ALPP CysHis) | binding result [1] | Kd [2] | koff [2] | kon [2] | binding result (human ALPI on CHO cells) | binding result (human ALPL on CHO cells) | Binder
4 | no binding (tested: 500 ng VHH) | binds | no binding | 0.19 nM | 8.5e-06 s⁻¹ | 45900 M⁻¹ s⁻¹ | – | – | H10 (VHH, not shown: small tags and cut ends) VHH: QVQLVESGGGSVQTGGSLRLSCAASGPSLSNYAMGWFRQAPGKEREFVAGISWGGGRTNYLDSVKGRFTISRDNAKNTMYLQMNSLKPEDAAVYYCAGRYGRGRDVEYEYDYWGQGTQVTVSS
5 | no binding (tested: 500 ng VHH) | binds | no binding | – | – | 149000 M⁻¹ s⁻¹ | – | – | E11 (VHH, not shown: small tags and cut ends) VHH: QVQLVESGGGSVQAGGSLRLSCAASGPSLSNFAMGWFRQPPGKEREFVAGISWGGGRTSYTDSVKGRFTISRDNAKNTVYLQMNNLKPEDTGVYYCAGRYGRGRNVEYEYDYWGQGTQVTVSS
6 | no binding (tested: 500 ng VHH) | binds | no binding | < 0.01 nM | < 1e-07 s⁻¹ | 40600 M⁻¹ s⁻¹ | – | – | F09 (VHH, not shown: small tags and cut ends) VHH: QVQLVESGGGSVQAGGSLRLSCAASGPSLSNYAMGWFRQAPGKEREFVAGISWGGGRTSCTDSVKGRFTISRDNAKNTVYLQMNNLKPEDTGVYYCAGRYGRGRNVEYEYDYWGQGTQVTVSS
